The source of these data is patent publication US6861578B1, “Method for plant protection against insects or nematodes by transformation with a nucleic acid encoding equistatin” (Plant Research International B.V., priority 1997, dated 2005).

One assay concerns the target T1, papain (Carica papaya, UniProt P00784).
T1 sequence (P00784 134-345): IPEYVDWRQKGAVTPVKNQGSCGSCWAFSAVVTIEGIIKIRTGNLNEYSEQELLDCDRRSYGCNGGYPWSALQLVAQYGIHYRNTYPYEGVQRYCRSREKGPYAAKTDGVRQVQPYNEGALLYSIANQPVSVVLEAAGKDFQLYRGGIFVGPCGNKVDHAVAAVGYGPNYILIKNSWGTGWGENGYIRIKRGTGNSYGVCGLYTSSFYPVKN
Briefly: Kinetic analysis of papain inactivation (continuous rate assay). The format is biochemical.

The target in another assay is cathepsin D (Homo sapiens, UniProt P07339). Description: Incubation of equistatin with cathepsin D, reverse-phase HPLC (substrate test). Type of assay: biochemical. As to conditions: incubated in different molar concentrations and times. As for the experimental part:
In panel A the equistatin was incubated with cathepsin D in a final molar concentration of 2:1, and in panel B the equistatin was fragmented using 1% (w/w) β-trypsin. Identities of peaks were based on the N-terminal sequences.
Equistatin was isolated from sea anemone A. equina by a procedure that was described previously utilizing its inhibitory activity toward cysteine proteinase, papain (Lenarcic et al. (1997) J. Biol. Chem. 272: 13899). Besides cysteine proteinases, equistatin was screened for the inhibition of two other classes of proteinases, aspartic proteinases (cathepsin D) and serine proteinase (trypsin). […] 500 μg equistatin was incubated with 5 μg of β-trypsin in 0.5 ml of 0.1 M Tris/HCl buffer pH 8.0, for 40 min at 37° C. Reaction was stopped by the addition of trifluoroacetic acid. The 9-trypsin digest of equistatin was separated by high performance liquid chromatography (Milton Roy Co.) using a reverse phase Vydac C18 column equilibrated with 5% acetonicril containing 0.1% (v/v) trifluoroacetic acid. Elution was performed using a linear gradient of 80% (v/v) acetonitrile containing 0.1% (v/v) trifluoroacetic acid. Absorbance was monitored at 215 nm. Two major peaks were obtained on the reverse-phase. HPLC (FIG. 9B). The molecular weights, estimated by the SDS PAGE under non-reducing conditions, were about 7,000 and 14,000 (FIG. 10). […]

Assay [1] deals with Colorado potato beetle larvae. Briefly: Toxicity of equistatin painted on potato leaves towards Colorado potato beetle larvae. The format is in vivo, Leptinotarsa decemlineata. As for the experimental part:
Potato tubers of cultivar Surprise (Solanum tuberosum) were sprouted. Sprouted tubers were planted in 1 l pots and grown for 3-4 weeks at a 22/18° C., 16/8 hr day night rhythm. Plants 10-15 cm high were placed in glass jars together with a paper wick on which 2 ul methyl jasmonate was pipeted. Jars were sealed immediately with parafilm and placed in a climate chamber of 30° C. with continuous light. Control plants were placed in a chamber of 25° C. with a 16-8 hr day night rhythm. After one day at 30° C. plants were taken from the jars and placed in the same chamber as the control. Plants were used on day 3. Freshly treated plants were used for each subsequent day of feeding. […] The top meristems were removed from the plants and painted on both sides with a 175 μM solution of recombinant equistatin in 0.3% agar obtained by mixing 1:1 a stock solution of 350 μM equistatin with 0.6% water agar. Controls were painted with 0.3% water agar. The agar solution was applied at a concentration of 30 μl/cm2.
The final concentration on the leaf was estimated to be 70 μM which is equivalent to 1.4 mg/g leaf. Painted leaves were placed in a tube containing 0.4% agar and out on top of a filterpaper inside a petridish. 21-26 newly hatched Colorado potato beetle larvae were placed on the leaves and the petridish was put in an incubator set at 28° C. Everyday fresh painted leaves replaced the old ones.

[2] abbreviates: recombinant equistatin on MeJa treated plants.
Setting [3] is: recombinant equistatin on control plants.
The mark [4] stands for this setting: recombinant equistatin on methyl jasmonate (MeJa) treated plants.

Chain of cathepsin D (P07339 65-412, species assumed): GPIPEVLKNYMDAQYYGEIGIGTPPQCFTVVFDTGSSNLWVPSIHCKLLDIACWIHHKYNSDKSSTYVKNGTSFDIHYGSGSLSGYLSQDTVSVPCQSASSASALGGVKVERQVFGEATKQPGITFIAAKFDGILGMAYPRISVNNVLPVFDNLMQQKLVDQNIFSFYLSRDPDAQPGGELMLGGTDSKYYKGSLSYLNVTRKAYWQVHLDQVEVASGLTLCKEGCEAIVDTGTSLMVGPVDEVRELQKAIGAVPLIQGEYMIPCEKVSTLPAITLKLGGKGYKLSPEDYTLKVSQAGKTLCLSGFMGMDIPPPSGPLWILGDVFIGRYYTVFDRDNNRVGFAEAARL

B1: equistatin: cysteine/aspartic protease inhibitor from sea anemone Actinia equina with three type I repeated thyroglobulin domains; purified or recombinant from E. coli (protein)
chain: SLTKCQQLQASANSGLIGTYVPQCKETGEFEEKQCWGSTGYCWCVDEDGKEILGTKIRGSPDCSRRKAALTLCQMMQAIIVNVPGWCGPPSCKADGSFDEVQCCASNGECYCVDKKGKELEGTRQQGRPTCERHLSECEEARIKAHSNSLRVEMFVPECLEDGSYNPVQCWPSTGYCWCVDEGGVKVPGSDVRFKRPTC
modifications: left off: large carriers; small tags and cut ends
notes: purified or recombinant from E. coli
For B1, the Ki with papain (Ki calculated from the ratio kd/ka) was 0.57 ± 0.04 nM. The “10^4 × kd” value with papain (continuous rate assay, printed value is 10^4 × kd) came to 65 ± 1.5 s^−1. In addition, the “10^−6 × ka” value with papain (continuous rate assay, printed value is 10^−6 × ka) stood at 12 ± 0.6 M^−1 s^−1. Besides, the “degradation of equistatin by cathepsin D” value with cathepsin D is given as “No degradation products were observed”. Also, in assay [1] (setting [2]), the “percent mortality, day 1” value is listed as 0%; the “percent mortality, day 2” value was found to be 23%; the “percent mortality, day 3” value amounted to 77%; the “percent mortality, day 4” value stood at 92%. Moreover, in assay [1] (setting [3]), the “percent mortality, day 1” value is 0%; the “percent mortality, day 2” value came out at 10%; the “Larval weight, day 3” value was found to be 0.5 mg/larvae; the “percent mortality, day 3” value worked out at 52%. Also, in assay [1] (setting [3]), the “Larval weight, day 4” value came to 0.7 mg/larvae and the “percent mortality, day 4” value is given as 76%. Also, in assay [1] (setting [4]), the “Larval weight, day 3” value is reported as “n.g” and the “Larval weight, day 4” value is listed as “n.g”.
